The record followed here is paper PMC12263829 (Nature Communications, 2025).

By stoichiometry N is commonly meant the number of molecules, sites or subunits per partner or assembly.

The data set deals with the molecule itself. Description: Number and Brightness.

B1: EGFP-EWSR1::FLI1 (natural protein, human, UniProt Q01844 1-264, looked up)
chain: MASTDYSTYSQAAAQQGYSAYTAQPTQGYAQTTQAYGQQSYGTYGQPTDVSYTQAQTTATYGQTAYATSYGQPPTGYTTPTAPQAYSQPVQGYGTGAYDTTTATVTTTQASYAAQSAYGTQPAYPAYGQQPAATAPTRPQDGNKPTETSQPQSSTGGYNQPSLGYGQSNYSYPQVPGSYPMQPVTAPPSYPPTSYSSTQPTSYDQSSYSQQNTYGQPSSYGQQSSYGQQSSYGQQPPTSYPPQTGSYSQAPSQYSQQSSSYGQQPSYDSVRRGAWGNNMNSGLNKSPPLGGAQTISKNTEQRPQPDPYQILGPTSSRLANPGSGQIQLWQFLLELLSDSANASCITWEGTNGEFKMTDPDEVARRWGERKSKPNMNYDKLSRALRYYYDKNIMTKVHGKRYAYKFDFHGIAQALQPHPTESSMYKYPSDISYMPSYHAHQQKVNFVPPHPSSMPVTSSSFFGAASQYWTSPTGGIYPNPNVPRHPNTHVPSHLGSYY
On to B1, for which the “stoichiometry N” value lay within 3 to 4 molecules.

B2: EGFP-∆63EWSR1::FLI1 (domain or fragment, human, UniProt Q01844 64-264, looked up)
chain: TAYATSYGQPPTGYTTPTAPQAYSQPVQGYGTGAYDTTTATVTTTQASYAAQSAYGTQPAYPAYGQQPAATAPTRPQDGNKPTETSQPQSSTGGYNQPSLGYGQSNYSYPQVPGSYPMQPVTAPPSYPPTSYSSTQPTSYDQSSYSQQNTYGQPSSYGQQSSYGQQSSYGQQPPTSYPPQTGSYSQAPSQYSQQSSSYGQQPSYDSVRRGAWGNNMNSGLNKSPPLGGAQTISKNTEQRPQPDPYQILGPTSSRLANPGSGQIQLWQFLLELLSDSANASCITWEGTNGEFKMTDPDEVARRWGERKSKPNMNYDKLSRALRYYYDKNIMTKVHGKRYAYKFDFHGIAQALQPHPTESSMYKYPSDISYMPSYHAHQQKVNFVPPHPSSMPVTSSSFFGAASQYWTSPTGGIYPNPNVPRHPNTHVPSHLGSYY
As for B2, the “stoichiometry N” value was in the range of 3 to 4 molecules.
